In paper PMC6232179:

Biological target: COX-2 (prostaglandin endoperoxide synthase 2, PTGS2), purified His-tagged protein (UniProt P35354)
Assay: SPR; COX-2 immobilised on a CM5 chip, cyclosporine A flowed at increasing concentrations; 10 mM Hepes pH 7.2, 150 mM NaCl, 1 mM EDTA, 0.005% P20, 2% ethanol; 25 °C, 30 µl/min; 1:1 Langmuir model; triplicate

Chain of COX-2 (prostaglandin endoperoxide synthase 2, PTGS2), purified His-tagged protein (P35354 18-604): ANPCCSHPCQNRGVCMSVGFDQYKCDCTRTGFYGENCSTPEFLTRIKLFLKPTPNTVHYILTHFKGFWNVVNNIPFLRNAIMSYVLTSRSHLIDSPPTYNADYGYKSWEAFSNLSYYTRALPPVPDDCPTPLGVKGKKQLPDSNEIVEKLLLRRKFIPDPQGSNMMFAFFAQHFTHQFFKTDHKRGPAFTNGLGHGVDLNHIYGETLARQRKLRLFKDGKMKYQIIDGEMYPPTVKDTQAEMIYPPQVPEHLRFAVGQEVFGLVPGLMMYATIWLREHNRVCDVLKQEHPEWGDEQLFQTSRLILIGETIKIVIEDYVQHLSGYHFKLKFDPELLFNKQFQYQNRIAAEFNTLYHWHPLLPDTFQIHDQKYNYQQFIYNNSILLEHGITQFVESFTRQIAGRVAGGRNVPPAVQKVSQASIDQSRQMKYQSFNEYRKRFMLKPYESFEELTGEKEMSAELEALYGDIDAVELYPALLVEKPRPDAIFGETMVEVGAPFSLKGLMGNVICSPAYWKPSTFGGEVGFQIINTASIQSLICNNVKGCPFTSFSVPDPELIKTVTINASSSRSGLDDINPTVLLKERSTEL

- Kd: 895 nM
Substance: Cyclosporine A (peptide)
